assay: soluble on expression in E. coli; label from the status in PepcDB or PDB records

Row | Sequence | soluble on expression in E. coli
1 | MGSDKIHHHHHHMVRQFLPLNGLRAFEASARHLSFTRAAIELCVTQAAVSQQVKGLEKRLGVALFQRLPRGLKITAEGEALLPTVTSSFDQMATTLDRIEAGQVRELLFLGVVGTFAVGWLLPRLAAFQKRHPFIDVRVSTNNNRVDMAAEGLDFAIRFGQGSWHGTDAFRLFEAPLSPLCTPKLAEMLKEPADLMDATLLRSYRADEWSTWFAAAGVSPAAQVNAGIVFDTSLGMMEAALQGLGVALAPPSMFSRHLTSGAVMQPFPVTISLGSYWLTRLQSKPQTSAMQAFSDWLLETIGTA | not soluble
2 | MGSDKIHHHHHHMWDRGLHSYRMVHATLKCGCHYLGRVPKNVKFPVDKVLDDGSYLSWIAPDRKSKHKGGTRIQVRVIEYTIDSENGQQTYRLIPSLMDIALFPALLLATEYHQRWEIENTIDELKTHLNGRKTPIRSLKPREVVQEIYGWLLSHYAVRTLMFQAATAASISPLRLGFTGTLKVIRRAIADFQDANSEQLPFFLQANSGDFGAKNPYRRYIAALTQQRDFNLLILQNRLDHRFTNGCIPVFIIPKQINNREGLLQKTEVRK | not soluble
3 | MGSDKIHHHHHHMWFKNLQLHRFSAPWSPSADEVEASLAKHAFFPGTSLEMQTQGWASPRDNGQLVHAVGRQMLLTLRTEKKLLPATVVNQVTKARAAEVEEQQGYKPGRKQLRELKEQVTEELLPRAFSIRRDTRVWIDPDNGWLAIDAASTAKADEVRGMLFKALDALPLANLHVNQSPVAAMTDWLSTDVAPAGFTVDQEIELQSGSESKATVRYVRHPLDAEDLRRHISGGKRCTRLAMTWNDRVSFVLTDSLAIKRVAPLDVIKEQADGTVSDEDERFDADFTLMAGELAGMLGDLTEALGGERKA | not soluble
4 | MGSDKIHHHHHHMWQDILNIHPDCIEDFINFDKLPGQAASLIAFAGMSYLQTEYKIGKTGKGNICLNNENNSGHVHYLISTHAGEGKIKLGNNEYLVKPGSIVLLPAGTPFLYELSGEYWEMCWLLLHDCSEYKFVHQLHPSVYSSINAERLYQTMSLIREFQHGESIYQSDIILRLVEVLVYQIAQTLNMGQQLTKQQQKFHSLIRRVNKQLQLSWTVKQLAAEMHMSEPHFFRLCKKEMGMTPIKLLTHTRLEYACYLLRYTQYNLDQIADTVGYGDSASFAHRFKKDYGLSPGRWRKEQINNFQSNDIENGEKR | not soluble
5 | MGSDKIHHHHHHMWTGFFSKSGTGIAEERHQNRRACTDVPLLAERNSKHPDRPYGFAKYRQSGLDIYAWHGIYFFPRFPFIDIDCIRWVCAGLKAFKHYIRENGLPDLIHAHRMNYAGILAQKISQKYGIPYVVTEHSSTITRGLIRPHQWQPMEKAAAHASALLAVSRHFAHVLQHKYGCEWQYLPPTYWAEYSTDRLNKEKKTTNRISCSAPSRTFAVSKDTMSYSLPLPGRWHNARNCA | not soluble
6 | MGSDKIHHHHHHMYANKVKKIAAVHDLSGMGRVSLTVVIPILSSMGFQVCPLPTAVLSNHTQYPGFSFLDLTDEMPKIIAEWKKLEVQFDAIYTGYLGSPRQIQIVSDFIKDFRQPDSLIVADPVLGDNGRLYTNFDMEMVKEMRHLITKADVITPNLTELFYLLDEPYKADSTDEELKEYLRLLSDKGPQVVIITSVPVHDEPHKTSVYAYNRQGNRYWKVTCPYLPAHYPGTGDTFTSVITGSLMQGDSLPMALDRATQFILQGIRATFGYEYDNREGILLEKVLHNLDMPIQMASYELI | not soluble
7 | MGSDKIHHHHHHMYCGVPEEDPDKLVALILSGGQSSRMGTDKGSMELNGERLVERAGNLCASAGLPFYYSINASQNQQYLNFLPADALIVDTLDDIKGPLAGLLSFYVKYPNTDVLLLPCDMIHLGKSILSDLVQAYETMSIGHDIIVYQYANEIIEPMPGIYTSEALRKIYWLFLSGDLTRFSLKYCIEISNSFFIPIKKEAEVLFKNINSPEDITPSK | not soluble
8 | MGSDKIHHHHHHMYLVRNMEHVEPNIDGFKYYCSRFKNHFSFDERLTPWSCPHCKIGRLIAKEENFFCQETLILHSERKPSLQYSGFFICNCCDNKTFSTGTGKNNYYCGGDDETGDFTEMYVNEYTPQFFSPSIMLFNPPASTPQSVRDSLKRAFSICWCDIPASCNVLRVTVEILLKERWPEVPIVINGQNLNKKLNELKKIEASQPKLLEILDYFLAIKWLGNNGSHDAELEERDLAVAFKIMDKALILLYSRDDNSVSEWVRMINAAEGRPIKS | not soluble
